Laboratory results as given in patent US12227771B2, “Expression systems and methods of use thereof” (Janssen Pharmaceutica NV, priority 2019, dated 2025).

Biological target: T1, human α9α10 nAChR (Homo sapiens, UniProt Q9GZZ6+Q9UGM1)
T1 construct: expressed in transfected cells; host or cells: HEK293T
Test: FLIPR calcium assay of HEK293T cells co-transfected with α9α10 nAChR and cDNA clones, response evoked by 200 μM ACh
Type: cell-based
Settings: 200 μM ACh; for FLIPR Response (Fold/Baseline): 180 s; for functional expression of co-transfected α9α10 nAChR in cDNA library screen: HEK293T, 20,000 cDNA clones
Method: Human embryonic kidney 293T (HEK293T) cells were cultured in high glucose DMEM medium supplemented with 10% FBS, sodium pyruvate and penicillin/streptomycin. Prior to transfection, cells were seeded at ˜80-90% confluence in 384-well fluorescence imaging plate reader (FLIPR) assay plates. After a 4 hour (hr) incubation, wells of cells were individually co-transfected with human α9α10 nAChR plus one of 20,000 clones from cDNA libraries encoding most all human proteins (Origene Technologies; Rockville, Md.; Broad Institute; Cambridge, Mass.) using Fugene HD (Promega; Madison, Wis.) according to the manufacture's protocol. After two days incubation, cells were washed three times with assay buffer (137 mM NaCl, 4 mM KCl, 2 mM CaCl2, 1 mM MgCl2, 5 mM glucose, 10 mM HEPES pH7.4) and loaded with Calcium5 dye (Molecular Devices; San Jose, Calif.) and 1.25 mM probenecid for 1 hr at room temperature (RT). After three washes, the plates were placed in the FLIPR stage.
To further characterize the regulation of α9α10 nAChR expression, HEK293T cells were co-transfected with α9α10 nAChR and each of CHAT, TMIE, TMEM100, TMEM132A, TMEM132C, TMEM132D, TMEM132E and TNFRSF10A individually and in combination (Table 2).

[1] = HEK293T co-transfected with α9α10 nAChR + CHAT plus the named gene
[2] = HEK293T co-transfected with α9α10 nAChR plus the named gene

T1 sequence (Q9UGM1 23-479): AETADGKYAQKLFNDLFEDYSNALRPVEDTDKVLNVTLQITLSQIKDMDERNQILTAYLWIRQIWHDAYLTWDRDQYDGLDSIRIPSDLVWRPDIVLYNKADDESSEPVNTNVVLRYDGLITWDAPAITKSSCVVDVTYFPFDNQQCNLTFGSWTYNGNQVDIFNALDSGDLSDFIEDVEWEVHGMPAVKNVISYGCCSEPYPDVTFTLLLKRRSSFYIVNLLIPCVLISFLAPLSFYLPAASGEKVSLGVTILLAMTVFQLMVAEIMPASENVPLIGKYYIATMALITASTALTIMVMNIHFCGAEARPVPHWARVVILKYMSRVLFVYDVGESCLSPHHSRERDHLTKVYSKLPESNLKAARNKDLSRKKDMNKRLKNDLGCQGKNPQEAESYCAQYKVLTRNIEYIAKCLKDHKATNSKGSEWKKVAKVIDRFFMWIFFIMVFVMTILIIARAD
T1 sequence (Q9GZZ6 25-450): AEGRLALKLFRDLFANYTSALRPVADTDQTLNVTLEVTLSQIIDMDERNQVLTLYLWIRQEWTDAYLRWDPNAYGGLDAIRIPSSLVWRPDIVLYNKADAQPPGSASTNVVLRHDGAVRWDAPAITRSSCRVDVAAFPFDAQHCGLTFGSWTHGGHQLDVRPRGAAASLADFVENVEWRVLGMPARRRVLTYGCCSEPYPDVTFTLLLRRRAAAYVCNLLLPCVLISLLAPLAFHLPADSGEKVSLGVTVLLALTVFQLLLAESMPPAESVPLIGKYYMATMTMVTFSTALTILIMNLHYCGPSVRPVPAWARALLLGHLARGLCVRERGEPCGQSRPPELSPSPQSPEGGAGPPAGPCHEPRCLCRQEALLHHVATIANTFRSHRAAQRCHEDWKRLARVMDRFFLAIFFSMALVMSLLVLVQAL

B1: TMEM132E: Transmembrane protein 132E, SEQ ID NO: 8, co-transfected cDNA clone (protein, listed as Homo sapiens)
chain: MAPGMSGRGGAALLCLSALLAHASGRSHPASPSPPGPQASPVLPVSYRLSHTRLAFFLREARPPSPAVANSSLQRSEPFVVFQTKELPVLNVSLGPFSTSQVVARELLQPSSTLDIPERLTVNWKVRAFIVRSHVPASQPVVQVLFYVAGRDWDDFGVTERLPCVRLHAFRDAREVKSSCRLSGGLATCLVRAELPLAWFGPPAPAAPPTARRKSPDGLEPEATGESQQAELYYTLHAPDASGGCGGSRRGAGPGVGARAESPTQHPLLRIGSISLFRPPPRRTLQEHRLDSNLMIRLPDRPLKPGEVLSILLYLAPNSSSPSSPSVEHFTLRVKAKKGVTLLGTKSRSGQWHVTSELLTGAKHSTATVDVAWAQSTPLPPREGQGPLEILQLDFEMENFTSQSVKRRIMWHIDYRGHGALPDLERAVTELTVIQRDVQAILPLAMDTEIINTAILTGRTVAIPVKVIAIEVNGLVLDISALVECESDNEDIIKVSSSCDYVFVSGKESRGSMNARVTFRYDVLNAPLEMTVWVPKLPLHIELSDARLSQVKGWRVPILPDRRSVRESEDEDEEEEERRQSASRGCTLQYQHATLQVFTQFHTTSSEGTDQVVTMLGPDWLVEVTDLVSDFMRVGDPRVAHMVDSSTLAGLEPGTTPFKVVSPLTEAVLGETLLTVTEEKVSITQLQAQVVASLALSLRPSPGSSHTILATTAAQQTLSFLKQEALLSLWLSYSDGTTAPLSLYSPRDYGLLVSSLDEHVATVTQDRAFPLVVAEAEGSGELLRAELTIAESCQKTKRKSVLATTPVGLRVHFGRDEEDPTYDYPGPSQPGPGGGEDEARGAGPPGSALPAPEAPGPGTASPVVPPTEDFLPLPTGFLQVPRGLTDLEIGMYALLGVFCLAILVFLINCIVFVLRYRHKRIPPEGQTSMDHSHHWVFLGNGQPLRVQGELSPPAGNPLETVPAFCHGDHHSSGSSQTSVQSQVHGRGDGSSGGSARDQAEDPASSPTSKRKRVKFTTFTTLPSEELAYDSVPAGEEDEEEEEDLGWGCPDVAGPTRPTAPPDLHNYMRRIKEIA
[1]
  FLIPR Response (Fold/Baseline): 2.6 Fold/Baseline
[2]
  FLIPR Response (Fold/Baseline): 0.7 Fold/Baseline
  functional expression of co-transfected α9α10 nAChR in cDNA library screen: enabled functional expression

B2: TMEM100: Transmembrane protein 100, SEQ ID NO: 9, co-transfected cDNA clone (protein, listed as Homo sapiens)
chain: MTEEPIKEILGAPKAHMAATMEKSPKSEVVITTVPLVSEIQLMAATGGTELSCYRCIIPFAVVVFIAGIVVTAVAYSFNSHGSIISIFGLVVLSSGLFLLASSALCWKVRQRSKKAKRRESQTALVANQRSLFA
[1]
  FLIPR Response (Fold/Baseline): 3.0 Fold/Baseline
[2]
  FLIPR Response (Fold/Baseline): 0.6 Fold/Baseline
  functional expression of co-transfected α9α10 nAChR in cDNA library screen: enabled functional expression
